Target: human BCMA (huBCMA) on cells (human) (UniProt Q02223)
Experiment: FACS, H929 cells, negative control

Chain of human BCMA (huBCMA) on cells (human) (Q02223 whole entry N81S): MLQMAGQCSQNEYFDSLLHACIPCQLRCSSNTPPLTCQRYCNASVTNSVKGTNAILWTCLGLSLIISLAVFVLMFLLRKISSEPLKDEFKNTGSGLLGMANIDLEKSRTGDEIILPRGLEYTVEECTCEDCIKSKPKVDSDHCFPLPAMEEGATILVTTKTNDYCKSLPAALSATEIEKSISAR

hu IgG1 (antibody)
MFI: 8 MFI

Reference: US20150344583A1
